In PMC4226739 (The Journal of Cell Biology, 2014):

Columns and labels:
Assay in all cases: FRAP in micropatterns
[1] = biological target: tyk2 fused to monomeric EGFP (tyk2-EGFP) (UniProt P29597 1-1187)
[2] = biological target: STAT2 fused to tagRFP-T (STAT2-tagRFP) (UniProt P52630 1-851)
[3] = biological target: STAT2 fused to monomeric EGFP (STAT2-EGFP) (UniProt P52630 1-851)
Sequence of STAT2 fused to monomeric EGFP (STAT2-EGFP) (P52630 whole entry, the tested form may be a part): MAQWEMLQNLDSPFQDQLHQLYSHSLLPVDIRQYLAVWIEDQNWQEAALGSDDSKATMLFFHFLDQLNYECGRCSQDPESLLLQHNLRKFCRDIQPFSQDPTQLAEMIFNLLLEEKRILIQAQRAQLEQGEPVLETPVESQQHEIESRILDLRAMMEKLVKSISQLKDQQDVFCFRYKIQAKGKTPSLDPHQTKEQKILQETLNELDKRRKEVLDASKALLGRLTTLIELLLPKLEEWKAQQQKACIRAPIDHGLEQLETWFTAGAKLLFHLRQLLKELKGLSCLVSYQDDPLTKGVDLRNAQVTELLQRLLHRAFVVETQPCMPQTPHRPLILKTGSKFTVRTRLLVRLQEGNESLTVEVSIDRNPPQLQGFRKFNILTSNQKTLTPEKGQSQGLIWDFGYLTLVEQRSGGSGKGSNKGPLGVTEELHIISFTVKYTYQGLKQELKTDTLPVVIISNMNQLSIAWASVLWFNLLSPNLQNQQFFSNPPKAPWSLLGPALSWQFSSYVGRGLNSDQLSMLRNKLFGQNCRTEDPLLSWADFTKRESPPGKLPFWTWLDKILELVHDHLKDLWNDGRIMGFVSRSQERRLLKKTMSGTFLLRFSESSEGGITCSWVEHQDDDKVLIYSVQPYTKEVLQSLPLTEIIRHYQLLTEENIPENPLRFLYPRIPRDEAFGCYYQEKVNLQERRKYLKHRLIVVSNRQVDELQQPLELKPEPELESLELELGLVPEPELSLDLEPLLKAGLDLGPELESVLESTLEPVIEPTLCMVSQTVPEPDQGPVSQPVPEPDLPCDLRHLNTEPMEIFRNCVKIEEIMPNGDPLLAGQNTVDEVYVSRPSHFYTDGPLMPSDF

Sequence of tyk2 fused to monomeric EGFP (tyk2-EGFP) (P29597 whole entry, the tested form may be a part): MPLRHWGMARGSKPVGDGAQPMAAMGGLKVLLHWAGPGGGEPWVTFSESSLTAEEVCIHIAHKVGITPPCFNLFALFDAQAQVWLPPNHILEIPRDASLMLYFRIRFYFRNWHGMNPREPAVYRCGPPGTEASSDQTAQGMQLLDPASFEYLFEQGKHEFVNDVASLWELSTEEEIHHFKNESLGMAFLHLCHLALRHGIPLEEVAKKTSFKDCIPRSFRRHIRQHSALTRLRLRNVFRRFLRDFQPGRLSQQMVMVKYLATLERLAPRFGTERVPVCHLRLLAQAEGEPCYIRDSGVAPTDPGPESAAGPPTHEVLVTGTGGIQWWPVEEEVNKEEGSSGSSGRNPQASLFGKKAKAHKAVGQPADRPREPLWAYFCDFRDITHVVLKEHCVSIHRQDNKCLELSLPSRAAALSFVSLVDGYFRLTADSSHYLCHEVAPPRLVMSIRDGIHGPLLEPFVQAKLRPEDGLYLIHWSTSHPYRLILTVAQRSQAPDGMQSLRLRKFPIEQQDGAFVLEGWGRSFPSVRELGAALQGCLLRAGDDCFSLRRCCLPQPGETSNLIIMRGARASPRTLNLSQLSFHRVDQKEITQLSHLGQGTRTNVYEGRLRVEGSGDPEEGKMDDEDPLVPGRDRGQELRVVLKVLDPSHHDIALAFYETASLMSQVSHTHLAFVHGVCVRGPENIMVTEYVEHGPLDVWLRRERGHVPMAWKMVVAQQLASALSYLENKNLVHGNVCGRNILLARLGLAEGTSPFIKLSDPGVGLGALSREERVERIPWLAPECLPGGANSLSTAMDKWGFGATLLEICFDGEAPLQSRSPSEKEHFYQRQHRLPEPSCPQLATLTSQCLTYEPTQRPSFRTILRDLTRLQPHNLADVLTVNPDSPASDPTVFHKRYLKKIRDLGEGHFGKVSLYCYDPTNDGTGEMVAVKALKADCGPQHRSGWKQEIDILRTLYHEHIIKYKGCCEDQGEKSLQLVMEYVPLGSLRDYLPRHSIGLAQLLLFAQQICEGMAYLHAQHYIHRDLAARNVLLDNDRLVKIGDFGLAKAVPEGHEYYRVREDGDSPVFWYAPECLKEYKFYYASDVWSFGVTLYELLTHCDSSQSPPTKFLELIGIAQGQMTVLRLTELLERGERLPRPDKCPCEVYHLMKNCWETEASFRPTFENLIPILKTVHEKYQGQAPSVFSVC
Sequence of STAT2 fused to tagRFP-T (STAT2-tagRFP) (P52630 whole entry, the tested form may be a part): as the sequence (P52630 whole entry, the tested form may be a part) above

B1: IFNAR1 fused to an N-terminal HaloTag (HaloTag-IFNAR1) (receptor)
chain: KNLKSPQKVEVDIIDDNFILRWNRSDESVGNVTFSFDYQKTGMDNWIKLSGCQNITSTKCNFSSLKLNVYEEIKLRIRAEKENTSSWYEVDSFTPFRKAQIGPPEVHLEAEDKAIVIHISPGTKDSVMWALDGLSFTYSLVIWKNSSGVEERIENIYSRHKIYKLSPETTYCLKVKAALLTSWKIGVYSPVHCIKTTVENELPPPENIEVSVQNQNYVLKWDYTYANMTFQVQWLHAFLKRNPGNHLYKWKQIPDCENVKTTQCVFPQNVFQKGIYLLRVQASDGNNTSFWSEEIKFDTEIQAFLLPPVFNIRSLSDSFHIYIGAPKQSGNTPVIQDYPLIYEIIFWENTSNAERKIIEKKTDVTVPNLKPLTVYCVKARAHTMDEKLNKSSVFSDAVCEKTKPGNTSKIWLIVGICIALFALPFVIYAAKVFLRCINYVFFPSLKPSSSIDEYFSEQPLKNLLLSTSEEQIEKCFIIENISTIATVEETNQTDEDHKKYSSQTSQDSGNYSNEDESESKTSEELQQDFV
- koff [1]: ~0.0025 s⁻¹

B2: HaloTag-IFNAR2 (receptor)
chain: ISYDSPDYTDESCTFKISLRNFRSILSWELKNHSIVPTHYTLLYTIMSKPEDLKVVKNCANTTRSFCDLTDEWRSTHEAYVTVLEGFSGNTTLFSCSHNFWLAIDMSFEPPEFEIVGFTNHINVMVKFPSIVEEELQFDLSLVIEEQSEGIVKKHKPEIKGNMSGNFTYIIDKLIPNTNYCVSVYLEHSDEQAVIKSPLKCTLLPPGQESESAESAKIGGIITVFLIALVLTSTIVTLKWIGYICLRNSLPKVLNFHNFLAWPFPNLPPLEAMDMVEVIYINRKKKVWDYNYDDESDSDTEAAPRTSGGGYTMHGLTVRPLGQASATSTESQLIDPESEEEPDLPEVDVELPTMPKDSPQQLELLSGPCERRKSPLQDPFPEEDYSSTEGSGGRITFNVDLNSVFLRVLDDEDSDDLEAPLMLSSHLEEMVDPEDPDNVQSNHLLASGEGTQPTFPSPSSEGLWSEDAPSDQSDTSESDVDLGDGYIMR
- koff [2]: 0.015 ± 0.005 s⁻¹
- koff [3]: 0.12 ± 0.05 s⁻¹
